Measured values from article PMC2806925, “Crystal Structure of the S. solfataricus Archaeal Exosome Reveals Conformational Flexibility in the RNA-Binding Ring” (PLoS ONE, 2010).

Target: the molecule itself
Test: crystal structure; Rrp4-exosome isoform (Rrp4, Rrp41, Rrp42 co-expressed and co-purified); 2.9 Å, space group C2; 30% PEG4000, 100 mM Tris-HCl pH 8.6, 200 mM Mg(Ac)2; refined without three-fold NCS

B1: Sulfolobus solfataricus exosome subunit Rrp4 as in the crystallised Rrp4-exosome isoform (natural protein)
chain: MNMSQSQKIVLQPRSIVVPGELLAEGEFQIPWSPYILKINSKYYSTVVGLFDVKDTQFEVIPLEGSFYYPKINDIVIGLVEDVEIYGWVVDIKAPYKAYLPASNLLGRSINVGEDLRRYLDVGDYVIARIENFDRSIDPVLSVKGKDLGRVSNGIVIDIMPVKVPRVIGKNKSMYETLTSKSGCSIFVANNGRIWATCPSRFSEEILIEAIRKIENESHIKGLTDRIKQFIEEKLGERNASSGETKTNS
notes: domains as printed: N-ter aa 1-50, S1 aa 56-126, KH aa 135-250; The purification of the Rrp4-exosome isoform is not described on its own; In the four-subunit preparation the His6-tag was removed with TEV protease, so the tag was probably cleaved here too; also called Chains C, F and I
stoichiometry N: 3
